B1: rC5a, Human: reference compound, Complement C5a assay (protein, UniProt P01031 678-751, looked up)
C5a anaphylatoxin: TLQKKIEEIAAKYKHSVVKKCCYDGACVNNDETCEQRAARISLGPRCIKAFTECCVVASQLRANISHKDMQLGR
modifications: C5a anaphylatoxin
B2: EGF: reference compound, Epidermal Growth Factor assay (protein, UniProt P01133 23-1207, looked up)
Pro-epidermal growth factor: PQHWSCPEGTLAGNGNSTCVGPAPFLIFSHGNSIFRIDTEGTNYEQLVVDAGVSVIMDFHYNEKRIYWVDLERQLLQRVFLNGSRQERVCNIEKNVSGMAINWINEEVIWSNQQEGIITVTDMKGNNSHILLSALKYPANVAVDPVERFIFWSSEVAGSLYRADLDGVGVKALLETSEKITAVSLDVLDKRLFWIQYNREGSNSLICSCDYDGGSVHISKHPTQHNLFAMSLFGDRIFYSTWKMKTIWIANKHTGKDMVRINLHSSFVPLGELKVVHPLAQPKAEDDTWEPEQKLCKLRKGNCSSTVCGQDLQSHLCMCAEGYALSRDRKYCEDVNECAFWNHGCTLGCKNTPGSYYCTCPVGFVLLPDGKRCHQLVSCPRNVSECSHDCVLTSEGPLCFCPEGSVLERDGKTCSGCSSPDNGGCSQLCVPLSPVSWECDCFPGYDLQLDEKSCAASGPQPFLLFANSQDIRHMHFDGTDYGTLLSQQMGMVYALDHDPVENKIYFAHTALKWIERANMDGSQRERLIEEGVDVPEGLAVDWIGRRFYWTDRGKSLIGRSDLNGKRSKIITKENISQPRGIAVHPMAKRLFWTDTGINPRIESSSLQGLGRLVIASSDLIWPSGITIDFLTDKLYWCDAKQSVIEMANLDGSKRRRLTQNDVGHPFAVAVFEDYVWFSDWAMPSVMRVNKRTGKDRVRLQGSMLKPSSLVVVHPLAKPGADPCLYQNGGCEHICKKRLGTAWCSCREGFMKASDGKTCLALDGHQLLAGGEVDLKNQVTPLDILSKTRVSEDNITESQHMLVAEIMVSDQDDCAPVGCSMYARCISEGEDATCQCLKGFAGDGKLCSDIDECEMGVPVCPPASSKCINTEGGYVCRCSEGYQGDGIHCLDIDECQLGEHSCGENASCTNTEGGYTCMCAGRLSEPGLICPDSTPPPHLREDDHHYSVRNSDSECPLSHDGYCLHDGVCMYIEALDKYACNCVVGYIGERCQYRDLKWWELRHAGHGQQQKVIVVAVCVVVLVMLLLLSLWGAHYYRTQKLLSKNPKNPYEESSRDVRSRRPADTEDGMSSCPQPWFVVIKEHQDLKNGGQPVAGEDGQAADGSMQPTSWRQEPQLCGMGTEQGCWIPVSSDKGSCPQVMERSFHMPSYGTQTLEGGVEKPHSLLSANPLWQQRALDPPHQMELTQ
modifications: Pro-epidermal growth factor

Experiments:
Complement C5a = Complement C5a (Homo sapiens, UniProt P21730); assay: Complement C5a (Human); [125I]BH-rC5a; format: binding; conditions: reference compound, QA/QC; read-out: Ref Kj
Chain of Complement C5a (P21730 whole entry): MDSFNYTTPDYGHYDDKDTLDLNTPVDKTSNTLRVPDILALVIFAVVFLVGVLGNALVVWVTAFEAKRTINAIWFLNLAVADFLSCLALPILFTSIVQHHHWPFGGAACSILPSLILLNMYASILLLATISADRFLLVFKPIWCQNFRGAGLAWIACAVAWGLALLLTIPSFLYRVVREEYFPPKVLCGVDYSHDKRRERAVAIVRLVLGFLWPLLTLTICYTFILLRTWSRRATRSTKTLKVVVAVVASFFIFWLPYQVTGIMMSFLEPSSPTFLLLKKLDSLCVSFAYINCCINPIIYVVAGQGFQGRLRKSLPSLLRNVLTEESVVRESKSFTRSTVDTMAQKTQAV

[1] = target: Epidermal Growth Factor, EGF; assay: Epidermal Growth Factor, EGF; [125I]EGF; format: binding; conditions: reference compound, QA/QC; read-out: Ref Kj

Molecule | Ki (Complement C5a) [nM] | Ki [1] [nM]
B1 | 0.619 | –
B2 | – | 3.2
